The results in this text go back to patent US20120264815, “REVERSIBLE PLATELET INHIBITION” (DUKE UNIVERSITY, published 2012).

Series [1] addresses VWF SPI fragment (V8 protease; C-terminal 455 residues of SPIII) (UniProt P04275 P04275:1674-2128). The experiment in a line: filter; 37 C, 2 mM CaCl2. The settings on record: label: 5'-32P. On the procedure: (§1) Affinity constants (Kd values) were determined using double-filter nitrocellulose filter binding assays (Rusconi et al, Thromb. Haemost. 84:841-848 (2000)). All binding studies were performed in either binding buffer E (20 mM HEPES, pH 7.4, 50 mM NaCl, 2 mM CaCl₂, and 0.1% BSA) or binding buffer F (20 mM HEPES, pH 7.4, 150 mM NaCl, 2 mM CaCl₂, and 0.1% BSA) at 37° C. Human purified VWF (factor VIII free) was purchased from Haematologic Technologies Inc. (Essex Junction, VT) and used in the double-filter nitrocellulose filter binding assay to determine the Kd of every other round and individual clones. VWF SPI and VWF SPIII domains were kindly provided by Dr. J. Evan Sadler (Washington University in St. Louis). Briefly, RNA were dephosphorylated using bacterial alkaline phosphatase (Gibco BRL, Gaithberg, Md.) and end-labeled at the 5′ end with T4 polynucleotide kinase (New England Biolabs, Beverly, Mass.) and [γ³²P] ATP (Amersham Pharmacia Biotech, Piscataway, N.J.) (Fitzwater and Polisky, Methods Enzymol. 267:275-301 (1996)). Direct binding was performed by incubating ³²P-RNA with VWF in physiological buffer+1 mg/ml BSA at 37° C. for 5 min. The fraction of the nucleic acid-protein complex which bound to the nitrocellulose membrane was quantified with a posphoimager (Molecular Dynamics, Sunnyvale, Calif.).

In series [2] the target is T1, von Willebrand factor (VWF) (Homo sapiens, UniProt P04275 P04275:764-2813). As to the kind of experiment: filter; nitrocellulose filter binding, 37 C, 2 mM CaCl2. Conditions: tags: Haematologic Technologies Inc. (factor VIII free); label: 5'-32P. On the procedure: as §1
In series [3] the target is T2, glycoprotein IIb/IIIa on activated platelets (Homo sapiens, UniProt P08514;P08514;P05106 P08514:32-887,P08514:891-1039,P05106:27-788). The experiment in a line: filter; apparent Kd on activated platelets, 37 C. The settings on record: label: 5'-32P. How it is done: (§2) In order to correlate the real-time data with binding affinity, purified 11D platelets were isolated and the affinity of each round to activated platelets was measured using nitrocellulose-filter partitioning (Wang et al, Biochemistry 32:1899-1904 (1993)). Since purified gpIIb/IIIa were selected, 80,000 gpIIb/IIIa receptors per platelet were assumed (Tcheng, Am. Heart J. 139:S38-45 (2000)) and the theoretical concentration of the protein was calculated.
(§3) Representative clones from each family were subsequently tested for their ability to bind to purified platelets.

The target of series [4] is T1, von Willebrand factor (VWF). As to the kind of experiment: filter; buffer F, 150 mM NaCl, 2 mM CaCl2, 37 C; Bmax 61%. The settings on record: tags: Haematologic Technologies Inc. (factor VIII free); label: 5'-32P. On the procedure:
Dissociation constants (Kd) of each truncate were determined using double-filter nitrocellulose filter binding assays (Pergolizzi et al, Blood 108:862-869 (2006)). All binding studies were performed in binding buffer F (20 mM HEPES, pH 7.4, 150 mM NaCl, 2 mM CaCl₂, and 0.1% BSA) at 37° C. Human purified VWF (with factor VIII and factor VIII free) was purchased from Haematologic Technologies Inc. (Essex Junction, VT) and used in the double-filter nitrocellulose filter binding assay to determine the Kd of individual clones. Briefly, RNA was dephosphorylated using bacterial alkaline phosphatase (Gibco BRL, Gaithberg, Md.) and end-labeled at the 5′ end with T4 polynucleotide kinase (New England Biolabs, Beverly, Mass.) and [γ³²P] ATP (Amersham Pharmacia Biotech, Piscataway, N.J.). Direct binding was performed by incubating ³²P—RNA with VWF in physiological buffer+1 mg/ml BSA at 37° C. for 5 min. The fraction of the nucleic acid-protein complex which bound to the nitrocellulose membrane was quantified with a phosphoimager (Molecular Dynamics, Sunnyvale, Calif.).

Series [5] concerns the target T2, glycoprotein IIb/IIIa on activated …. As to the kind of experiment: filter; apparent Kd on activated platelets, poorest binder. Conditions: label: 5'-32P. On the procedure: as §2, §3

B1: VWF R9.14 (ssRNA)
RNA: GGGAGGACGAUGCGGUGGACGAACUGCCCUCAGCUACUUUCAUGUUGCUGACGCACAGACGACUCGCUGAGGAUCCGAGA
modifications: 2'-F pyrimidines
With B1, in series [1], the binding result is recorded as “no binding”. The molecule further had a Kd in series [2] of 12 nM.

B2: C1 (ssRNA)
RNA: GGGAGGACGAUGCGGUAUAGACCACAGCCUGAGUAUUAACCACCAACCCAGGUACUCAGACGACUCGCUGAGGAUCC
modifications: 2'-F pyrimidines
Consider B2, for which the Kd in series [3] amounted to 6 nM.

B3: 9.14 T10 (ssRNA)
RNA: GGGAGGUGGACGAACUGCCCUCAGCUACUUUCAUGUUGCUGACGCACAGACGACUCGCUG
modifications: 2'-F pyrimidines
Take B3: the Kd in series [4] came to 44 nM.

B4: C3 (ssRNA)
RNA: GGGAGGACGAUGCGGUGCCACAUGCCUCAGAUACAGCACGCACCUUCGACCUAAUCAGACGACUCGCUGAGGAUCC
modifications: 2'-F pyrimidines
Consider B4, for which the Kd in series [5] stood at 62 nM.
